In patent publication US20100150906A1 (AC IMMUNE S A, published 2010):
No end group written: not given here.

How the values were obtained:
Test in all cases: ELISA, biotinylated peptide on streptavidin plate, O.D. 405 nm [upper chart, Figure 1]
[1] = biological target: T1, peptide 25 (also: biotinylated, site not given here)
T1 construct: also called 25 on the axis Peptide number; first peptide library
T1 peptide: GSNKGAIIG
From the text: (§1) One library comprised a total of 33 biotinylated peptides covering the complete amino acid (aa) sequence of Aβ1-42 (produced by Mimotopes and purchased from ANAWA Trading SA), the second library contains biotinylated peptides using peptide 12 (aa12-20 of Aβ) from the first peptide library and substituting each aa in the sequence by an alanine (see table 8 below), and the third library contains biotinylated peptides 13, 14, or 15 (aa 13-21, 14-22 or 15-23 of Aβ) and substituting in each case the last amino acids to an alanine or to a glycine for aa 21 which is already an alanine (see table 9 below). A biotinylated complete Aβ1-42 peptide was used as positive control (Bachem). Epitope mapping was done according to the manufacturer's (Mimotopes) instructions. Briefly, Streptavidin coated plates (NUNC) were blocked with 0.1% BSA in PBS overnight at 4° C. After washing with PBS-0.05% Tween 20, plates were coated for 1 hour at RT with the different peptides from the library, diluted in 0.1% BSA, 0.1% Sodium Azide in PBS to a final concentration of 10 μM. […] Plates were washed again and incubated with alkaline phosphatase conjugated goat anti human IgG for 1 h at RT.

[2] = biological target: T2, peptide 29 (also: biotinylated, site not given here)
T2 construct: also called 29 on the axis Peptide number; first peptide library
T2 peptide: GAIIGLMVG
From the text: as §1

[3] = biological target: T3, peptide 30 (also: biotinylated, site not given here)
T3 construct: also called 30 on the axis Peptide number; first peptide library
T3 peptide: AIIGLMVGG
From the text: as §1

[4] = biological target: T4, peptide 4 (also: biotinylated, site not given here)
T4 construct: also called 4 on the axis Peptide number; first peptide library
T4 peptide: FRHDSGYEV
From the text: as §1

[5] = biological target: T5, peptide 6 (also: biotinylated, site not given here)
T5 construct: also called 6 on the axis Peptide number; first peptide library
T5 peptide: HDSGYEVHH
From the text: as §1

[6] = biological target: T6, peptide 10 (also: biotinylated, site not given here)
T6 construct: also called 10 on the axis Peptide number; first peptide library
T6 peptide: YEVHHQKLV
From the text: as §1

[7] = biological target: T7, peptide 8 (also: biotinylated, site not given here)
T7 construct: also called 8 on the axis Peptide number; first peptide library
T7 peptide: SGYEVHHQK
From the text: as §1

[8] = biological target: T8, peptide 21 (also: biotinylated, site not given here)
T8 construct: also called 21 on the axis Peptide number; first peptide library
T8 peptide: AEDVGSNKG
From the text: as §1

[9] = biological target: T9, peptide 1 (also: biotinylated, site not given here)
T9 construct: also called 1 on the axis Peptide number; first peptide library
T9 peptide: DAEFRHDSG
From the text: as §1

[10] = biological target: T10, peptide 23 (also: biotinylated, site not given here)
T10 construct: also called 23 on the axis Peptide number; first peptide library
T10 peptide: DVGSNKGAI
From the text: as §1

[11] = biological target: T11, peptide 24 (also: biotinylated, site not given here)
T11 construct: also called 24 on the axis Peptide number; first peptide library
T11 peptide: VGSNKGAII
From the text: as §1

[12] = biological target: T12, peptide 5 (also: biotinylated, site not given here)
T12 construct: also called 5 on the axis Peptide number; first peptide library
T12 peptide: RHDSGYEVH
From the text: as §1

[13] = biological target: T13, peptide 32 (also: biotinylated, site not given here)
T13 construct: also called 32 on the axis Peptide number; first peptide library
T13 peptide: IGLMVGGVV
From the text: as §1

[14] = biological target: T14, peptide 22 (also: biotinylated, site not given here)
T14 construct: also called 22 on the axis Peptide number; first peptide library
T14 peptide: EDVGSNKGA
From the text: as §1

[15] = biological target: T15, peptide 31 (also: biotinylated, site not given here)
T15 construct: also called 31 on the axis Peptide number; first peptide library
T15 peptide: IIGLMVGGV
From the text: as §1

[16] = biological target: T16, peptide 9 (also: biotinylated, site not given here)
T16 construct: also called 9 on the axis Peptide number; first peptide library
T16 peptide: GYEVHHQKL
From the text: as §1

[17] = biological target: T17, peptide 2 (also: biotinylated, site not given here)
T17 construct: also called 2 on the axis Peptide number; first peptide library
T17 peptide: AEFRHDSGY
From the text: as §1

[18] = biological target: T18, peptide 17 (also: biotinylated, site not given here)
T18 construct: also called 17 on the axis Peptide number; first peptide library
T18 peptide: LVFFAEDVG
From the text: as §1

[19] = biological target: T19, peptide 11 (also: biotinylated, site not given here)
T19 construct: also called 11 on the axis Peptide number; first peptide library
T19 peptide: EVHHQKLVF
From the text: as §1

[20] = biological target: T20, peptide 20 (also: biotinylated, site not given here)
T20 construct: also called 20 on the axis Peptide number; first peptide library
T20 peptide: FAEDVGSNK
From the text: as §1

B1: humanized anti-human amyloid beta monoclonal antibody hC2 (antibody, human IgG4 S228P, kappa, V domains shown)
VH: EVQLVESGGGLVQPGGSLRLSCAASGFTFSSYGMSWVRQAPGKGLELVASINSNGGSTYYPDSVKGRFTISRDNAKNSLYLQMNSLRAEDTAVYYCASGDYWGQGTTVTVSS
VL: DIVMTQSPLSLPVTPGEPASISCRSSQSLVYSNGDTYLHWYLQKPGQSPQLLIYKVSNRFSGVPDRFSGSGSGTDFTLKISRVEAEDVGVYYCSQSTHVPWTFGQGTKVEIKR
notes: also called humanized antibody C2; humanized C2
Q: Does B1 bind [1]?
A: no binding (tested: 200 ng/ml (single concentration))

Q: Does B1 bind [2]?
A: no binding (tested: 200 ng/ml (single concentration))

Q: Does B1 bind [3]?
A: no binding (tested: 200 ng/ml (single concentration))

Q: Does B1 bind [4]?
A: no binding (tested: 200 ng/ml (single concentration))

Q: Does B1 bind [5]?
A: no binding (tested: 200 ng/ml (single concentration))

Q: Does B1 bind [6]?
A: no binding (tested: 200 ng/ml (single concentration))

Q: Does B1 bind [7]?
A: no binding (tested: 200 ng/ml (single concentration))

Q: Does B1 bind [8]?
A: no binding (tested: 200 ng/ml (single concentration))

Q: Does B1 bind [9]?
A: no binding (tested: 200 ng/ml (single concentration))

Q: Does B1 bind [10]?
A: no binding (tested: 200 ng/ml (single concentration))

Q: Does B1 bind [11]?
A: no binding (tested: 200 ng/ml (single concentration))

Q: Does B1 bind [12]?
A: no binding (tested: 200 ng/ml (single concentration))

Q: Does B1 bind [13]?
A: no binding (tested: 200 ng/ml (single concentration))

Q: Does B1 bind [14]?
A: no binding (tested: 200 ng/ml (single concentration))

Q: Does B1 bind [15]?
A: no binding (tested: 200 ng/ml (single concentration))

Q: Does B1 bind [16]?
A: no binding (tested: 200 ng/ml (single concentration))

Q: Does B1 bind [17]?
A: no binding (tested: 200 ng/ml (single concentration))

Q: Does B1 bind [18]?
A: no binding (tested: 200 ng/ml (single concentration))

Q: Does B1 bind [19]?
A: no binding (tested: 200 ng/ml (single concentration))

Q: Does B1 bind [20]?
A: no binding (tested: 200 ng/ml (single concentration))
